Source: patent publication US20170313764A1 (ACADEMISCH MEDISCH CENTRUM, published 2017)

Assays:
[1] = biological target: E1E2 of HCV isolate AMS.4d.20875969 (genotype 4d) (Hepatitis C virus genotype 4d); assay: cell-based or functional assay
[2] = biological target: E1E2 of HCV isolate AMS.3a.21071213 (genotype 3a) (Hepatitis C virus genotype 3a); assay: cell-based or functional assay
[3] = biological target: E1E2 of HCV isolate AMS.2b.20876551.kloon21 (genotype 2b) (Hepatitis C virus genotype 2b); assay: cell-based or functional assay
[4] = biological target: E1E2 of HCV isolate H77 (genotype 1a), wild type (Hepatitis C virus genotype 1a, strain …, UniProt P27958 192-383; P27958 384-746); assay: cell-based or functional assay
[5] = biological target: E1E2 of HCV isolate UKN4.11.1 (genotype 4) (Hepatitis C virus genotype 4); assay: cell-based or functional assay
[6] = biological target: E1E2 of HCV isolate H77 with single mutation G530A (Hepatitis C virus genotype 1a, strain …, UniProt P27958 192-383; P27958 384-746); assay: ELISA, GNA-captured E1E2 lysate; EC50 wild type / EC50 mutant
[7] = biological target: E1E2 of HCV isolate H77 with single mutation D698A (Hepatitis C virus genotype 1a, strain …, UniProt P27958 192-383; P27958 384-746); assay: as above
[8] = biological target: E1E2 of HCV isolate H77 with single mutation R657A (Hepatitis C virus genotype 1a, strain …, UniProt P27958 192-383; P27958 384-746); assay: as above
[9] = biological target: E1E2 of HCV isolate H77 with single mutation W529A (Hepatitis C virus genotype 1a, strain …, UniProt P27958 192-383; P27958 384-746); assay: as above
[10] = biological target: E1E2 of HCV isolate H77 with single mutation A439G (Hepatitis C virus genotype 1a, strain …, UniProt P27958 192-383; P27958 384-746); assay: as above
[11] = biological target: E1E2 of HCV isolate H77 with single mutation T526A (Hepatitis C virus genotype 1a, strain …, UniProt P27958 192-383; P27958 384-746); assay: as above
[12] = biological target: E1E2 of HCV isolate H77 with single mutation D535A (Hepatitis C virus genotype 1a, strain …, UniProt P27958 192-383; P27958 384-746); assay: as above
[13] = biological target: E1E2 of HCV isolate H77 with single mutation F442A (Hepatitis C virus genotype 1a, strain …, UniProt P27958 192-383; P27958 384-746); assay: as above
[14] = biological target: E1E2 of HCV isolate H77 with single mutation W616A (Hepatitis C virus genotype 1a, strain …, UniProt P27958 192-383; P27958 384-746); assay: as above
[15] = biological target: E1E2 of HCV isolate H77 with single mutation G436A (Hepatitis C virus genotype 1a, strain …, UniProt P27958 192-383; P27958 384-746); assay: as above
[16] = biological target: E1E2 of HCV isolate H77 with single mutation Y443A (Hepatitis C virus genotype 1a, strain …, UniProt P27958 192-383; P27958 384-746); assay: as above
[17] = biological target: E1E2 of HCV isolate H77 with single mutation L441A (Hepatitis C virus genotype 1a, strain …, UniProt P27958 192-383; P27958 384-746); assay: as above
[18] = biological target: E1E2 of HCV isolate H77 with single mutation T435A (Hepatitis C virus genotype 1a, strain …, UniProt P27958 192-383; P27958 384-746); assay: as above
[19] = biological target: E1E2 of HCV isolate H77 with single mutation Y485A (Hepatitis C virus genotype 1a, strain …, UniProt P27958 192-383; P27958 384-746); assay: as above
[20] = biological target: E1E2 of HCV isolate H77 with single mutation S424A (Hepatitis C virus genotype 1a, strain …, UniProt P27958 192-383; P27958 384-746); assay: as above
[21] = biological target: E1E2 of HCV isolate H77 with single mutation N415A (Hepatitis C virus genotype 1a, strain …, UniProt P27958 192-383; P27958 384-746); assay: as above
[22] = biological target: E1E2 of HCV isolate H77 with single mutation Y527A (Hepatitis C virus genotype 1a, strain …, UniProt P27958 192-383; P27958 384-746); assay: as above

Row | Binder | IC50, HCVpp neutralization [1] [µg/mL] | IC90, HCVpp neutralization [1] [µg/mL] | IC50, HCVpp neutralization [2] [µg/mL] | IC90, HCVpp neutralization [2] [µg/mL] | IC50, HCVpp neutralization [3] [µg/mL] | IC90, HCVpp neutralization [3] [µg/mL] | IC50, HCVpp neutralization [4] [µg/mL] | IC90, HCVpp neutralization [4] [µg/mL] | IC50, HCVpp neutralization [5] [µg/mL] | IC90, HCVpp neutralization [5] [µg/mL] | relative binding, mutant vs wild type [6] [%] | relative binding, mutant vs wild type [7] [%] | relative binding, mutant vs wild type [8] [%] | relative binding, mutant vs wild type [9] [%] | relative binding, mutant vs wild type [10] [%] | relative binding, mutant vs wild type [11] [%] | relative binding, mutant vs wild type [12] [%] | relative binding, mutant vs wild type [13] [%] | relative binding, mutant vs wild type [14] [%] | relative binding, mutant vs wild type [15] [%] | other results
1 | AT12-010 (antibody, V domains shown) VH: QLQLVQSGAEVKKPGSSVKVSCKASGGTFTSYAINWVRQVPGQGLEWMGEISPVFGTTHYAQKFQGRLKITADESADTAYMELSSLRSDDTAVYYCGRDRAPRLCSGGRCHSPPDHWGQGTLVTVSS VL: DIQMTQSPSSVSASVGDRVTITCRASQGFGNWLAWYQQKPGRAPKLLIFGASTLQNGVPSRFSGSASGTDFTLTITSLQPEDFATYYCLQTNTFPYTFGQGTKVEIKR | > 50 | > 50 | 1.41 | > 50 | 0.61 | 20.4 | 1.06 | > 50 | > 50 | > 50 | < 10 | 86 | 99 | < 10 | 45 | 29 | 5 | < 10 | < 10 | < 10 | relative binding, mutant vs wild type [16]: < 10%; relative binding, mutant vs wild type [17]: < 10%; relative binding, mutant vs wild type [18]: 47%; relative binding, mutant vs wild type [19]: 107%; relative binding, mutant vs wild type [20]: 16%; relative binding, mutant vs wild type [21]: 117%; relative binding, mutant vs wild type [22]: 19%
2 | AT12-007 (antibody, V domains shown) VH: QVQLEQSGAEVKKPGASVKVSCKVSGYTLTELSMHWVRQAPGKGLEWMGSFDPADGERLYAQKFQGRVIMSEDTSTDTAYMELSSLRSEDAAVYYCATAPRMTMFGVIMALDSWGQGTLVTVSS VL: DIQMTQSPSTLSASLGDRVTITCRASQNINKYLAWYQQKPGKAPKLLIYKASNLQSGVPSRFSGSGSGTDFILTISSLQPDDFATYYCQQYTTYSAWTFGQGTNVDIKR | > 50 | > 50 | 1.42 | 21.7 | 0.26 | 9.41 | 2.67 | > 50 | 1.87 | > 50 | < 10 | 103 | 116 | < 10 | 67 | 31 | 15 | < 10 | < 10 | 35 | relative binding, mutant vs wild type [16]: < 10%; relative binding, mutant vs wild type [17]: < 10%; relative binding, mutant vs wild type [18]: 84%; relative binding, mutant vs wild type [19]: 114%; relative binding, mutant vs wild type [20]: 34%; relative binding, mutant vs wild type [21]: 115%; relative binding, mutant vs wild type [22]: 24%
